{
  "source": "patent US9150884B2",
  "about": "“Microbial conversion of glucose to styrene and its derivatives” (Arizona Board of Regents, a Body Corporate of the State of …, priority 2011, dated 2015)",
  "molecules": {"B1": {"name": "FDC1: ferulic acid decarboxylase encoded by FDC1 of S. cerevisiae, expressed in recombinant E. coli from pTfdc1Sc (protein, listed as Saccharomyces cerevisiae)", "chain": "MRKLNPALEFRDFIQVLKDEDDLIEITEEIDPNLEVGAIMRKAYESHLPAPLFKNLKGASKDLFSILGCPAGLRSKEKGDHGRIAHHLGLDPKTTIKEIIDYLLECKEKEPLPPITVPVSSAPCKTHILSEEKIHLQSLPTPYLHVSDGGKYLQTYGMWILQTPDKKWTNWSIARGMVVDDKHITGLVIKPQHIRQIADSWAAIGKANEIPFALCFGVPPAAILVSSMPIPEGVSESDYVGAILGESVPVVKCETNDLMVPATSEMVFEGTLSLTDTHLEGPFGEMHGYVFKSQGHPCPLYTVKAMSYRDNAILPVSNPGLCTDETHTLIGSLVATEAKELAIESGLPILDAFMPYEAQALWLILKVDLKGLQALKTTPEEFCKKVGDIYFRTKVGFIVHEIILVADDIDIFNFKEVIWAYVTRHTPVADQMAFDDVTSFPLAPFVSQSSRSKTMKGGKCVTNCIFRQQYERSFDYITCNFEKGYPKGLVDKVNENWKRYGYK"}},
  "key": {"[1]": {"assay": "Whole cell PADC assay in recombinant E. coli BL21(DE3)", "format": "cell-based", "details": "whole cells in pH7 PBS, 1 g/L p-coumaric acid, 12 h", "protocol": "(§1) Seed cultures consisting of 5 ml of LB broth containing 100 mg/L ampicillin were prepared of E. coli BL21(DE3) strains that were individually transformed with each of pTpad1-fdc1, pTpad1Sc, pTfdc1Sc, pTpdcLp, and pTpadCBs. These cultures were grown for 12 hours at 30° C. while agitating at 250 rpm. 1 mL of each culture was then used to inoculate 3×250 mL cultures flasks containing 50 mL of LB supplemented with 100 mg/L ampicillin. The culture was then grown at 30° C. while agitating at 250 rpm until it reached an OD600 of 0.6, at which point the cultures were induced by the addition of IPTG to a final concentration of 0.2 mM. Cultures were then grown for an additional 6 h. Cells were then collected by centrifuging in 50 ml Falcon tubes for 5 min at 1400×g and washed once with pH7 PBS (phosphate buffered saline) buffer. The entire cell pellet was resuspended in 10 ml pH7 PBS buffer and the appropriate substrate (trans-cinnamic acid or p-coumaric acid) added at a final concentration of 1 g/L. Enzyme activity was monitored by taking 1 mL samples from the culture at both the time of initiation as well as after 12 h of culture. All samples were then analyzed by HPLC using the methods described herein."}, "[2]": {"assay": "Whole cell CADC assay in recombinant E. coli BL21(DE3)", "format": "cell-based", "details": "whole cells in pH7 PBS, 1 g/L trans-cinnamic acid, 12 h", "protocol": "as §1"}},
  "data": [
    {"molecule": "B1", "values": [
      {"measurement": "activity on p-coumaric acid (to p-hydroxystyrene)", "setting": "[1]", "value": "activities on both p-coumaric and trans-cinnamic acid"},
      {"measurement": "CADC activity (trans-cinnamic acid to styrene)", "setting": "[2]", "value": "activities on both p-coumaric and trans-cinnamic acid"}
    ]}
  ]
}
